Patent US20210292396A1 (INTERNATIONAL AIDS VACCINE INITIATIVE, published 2021)

Tests used:
[1] = target: gp120 (isolate not stated; FIG. 19) (HIV)
[2] = target: HIV Env of isolate ZM214M.PL15 (HIV); assay: cell-based or functional assay
[3] = target: HIV Env of isolate Ce704809221_1B3 (HIV); assay: cell-based or functional assay
HIV Env of isolate CNE19 = HIV Env of isolate CNE19 (HIV); assay: cell-based or functional assay
[4] = target: HIV Env of isolate X1193_c1 (HIV); assay: cell-based or functional assay
HIV Env of isolate CNE5 = HIV Env of isolate CNE5 (HIV); assay: cell-based or functional assay

Row | Binder | EC50 (read off the curve) [1] [µg/mL] | neutralization IC50 [2] [µg/mL] | neutralization IC50 [3] [µg/mL] | neutralization IC50 (HIV Env of isolate CNE19) [µg/mL] | neutralization IC50 [4] [µg/mL] | neutralization (Table 6 value) (HIV Env of isolate CNE5)
1 | PGT-121 (antibody, V domains shown) VH: QMQLQESGPGLVKPSETLSLTCSVSGASISDSYWSWIRRSPGKGLEWIGYVHKSGDTNYSPSLKSRVNLSLDTSKNQVSLSLVAATAADSGKYYCARTLHGRRIYGIVAFNEWFTYFYMDVWGNGTQVTVSS VL: SDISVAPGETARISCGEKSLGSRAVQWYQHRAGQAPSLIIYNNQDRPSGIPERFSGSPDSPFGTTATLTITSVEAGDEADYYCHIWDSRVPTKWVFGGGTTLTVLG | ~0.6 | 0.46 | 0.025 | 0.008 | – | –
2 | ePGT121.15.H1.L1 (antibody, V domains shown) VH: QMQLQESGPGLVKPGETLSLTCSVSGASISSSYWSWLRETPGKGLEWIGYTHHSGDTNYAPSLKSRVHLGLHPSKNQVSLSLTSVTAADTAVYYCARTLHGRRIYGVVAFNEWFTYFYWEVWGNGTQVTVSS VL: SDISVAPGETVRISCGGESIGSRAVQWYQHRAGQAPKLIIYNNQDRPPGIPERFSGSPDIDFGTTATLTITNVEAGDEATYYCHIWDSRRPTNWVFGGGTTLTVL | – | 0.0006 | – | – | 0.0001 | –
3 | ePGT121.15.H6.L1 (antibody, V domains shown) VH: QMQLQESGPGLVKPGETLSLTCSVSGASISSSYWSWLRETPGKGLEWIGYTHHSGDTNYAPSLKSRVHLGLHPSKNQVSLSLTSVTAADTAVYYCARTLHGRRIYGVVAFNEFFTYFYWEVWGKGTQVTVSS VL: SDISVAPGETVRISCGGESIGSRAVQWYQHRAGQAPKLIIYNNQDRPPGIPERFSGSPDIDFGTTATLTITNVEAGDEATYYCHIWDSRRPTNWVFGGGTTLTVL | – | – | – | – | – | 2.72
